Test results as given in IntAct's records for PubMed 27918561.

B1: Negative regulator of P-body association (Homo sapiens), A0A0U1RRE5 (parent)
chain: MGDQPCASGRSTLPPGNAREAKPPKKRCLLAPRWDYPEGTPNGGSTTLPSAPPPASAGLKSHPPPPEK
partner: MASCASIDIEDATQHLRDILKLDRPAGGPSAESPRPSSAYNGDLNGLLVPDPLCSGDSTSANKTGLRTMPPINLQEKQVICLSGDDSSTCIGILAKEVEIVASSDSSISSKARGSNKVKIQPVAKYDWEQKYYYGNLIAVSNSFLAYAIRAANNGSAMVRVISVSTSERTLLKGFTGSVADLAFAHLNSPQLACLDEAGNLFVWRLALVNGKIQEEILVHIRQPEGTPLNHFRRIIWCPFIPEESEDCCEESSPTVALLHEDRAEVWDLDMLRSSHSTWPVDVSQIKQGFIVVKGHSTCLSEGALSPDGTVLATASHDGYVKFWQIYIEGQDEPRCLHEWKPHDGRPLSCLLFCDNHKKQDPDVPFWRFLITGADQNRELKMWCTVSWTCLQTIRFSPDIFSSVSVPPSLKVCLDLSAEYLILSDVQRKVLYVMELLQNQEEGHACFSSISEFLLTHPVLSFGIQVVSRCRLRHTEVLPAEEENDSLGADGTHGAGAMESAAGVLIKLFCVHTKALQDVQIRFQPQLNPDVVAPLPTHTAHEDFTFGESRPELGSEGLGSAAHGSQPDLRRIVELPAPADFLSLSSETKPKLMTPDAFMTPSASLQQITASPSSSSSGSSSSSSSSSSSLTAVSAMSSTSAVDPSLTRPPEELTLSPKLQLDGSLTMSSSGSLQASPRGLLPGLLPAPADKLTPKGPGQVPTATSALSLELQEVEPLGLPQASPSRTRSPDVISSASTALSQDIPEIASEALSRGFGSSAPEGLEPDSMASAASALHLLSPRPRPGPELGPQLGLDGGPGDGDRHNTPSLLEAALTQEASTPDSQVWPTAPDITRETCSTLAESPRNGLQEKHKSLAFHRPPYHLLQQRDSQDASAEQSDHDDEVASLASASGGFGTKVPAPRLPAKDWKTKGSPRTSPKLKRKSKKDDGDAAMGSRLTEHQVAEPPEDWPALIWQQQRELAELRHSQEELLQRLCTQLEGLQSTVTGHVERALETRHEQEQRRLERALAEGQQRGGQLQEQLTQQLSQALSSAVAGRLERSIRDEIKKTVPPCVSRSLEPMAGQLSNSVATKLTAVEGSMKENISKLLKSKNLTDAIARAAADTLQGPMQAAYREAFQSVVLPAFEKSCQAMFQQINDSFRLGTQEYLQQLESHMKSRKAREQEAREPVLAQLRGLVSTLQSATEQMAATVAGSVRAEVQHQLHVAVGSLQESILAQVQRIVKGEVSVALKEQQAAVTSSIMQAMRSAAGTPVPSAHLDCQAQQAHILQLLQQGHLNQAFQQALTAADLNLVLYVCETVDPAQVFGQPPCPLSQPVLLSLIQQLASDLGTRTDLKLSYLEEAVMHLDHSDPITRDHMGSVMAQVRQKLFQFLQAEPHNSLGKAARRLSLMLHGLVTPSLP

Variants of: B1
Details: with edc4_human EDC4, Q6P2E9
R27A was tested, and the “effect of a mutation on the interaction” value was “with no effect”. In the case of G39A, the “effect of a mutation on the interaction” value is reported as “with no effect”. With L30A the “effect of a mutation on the interaction” value was “disrupting interaction strength”. For P24A, the “effect of a mutation on the interaction” value was “with no effect”. With W34A the “effect of a mutation on the interaction” value was “disrupting interaction strength”. K25A was tested, and the “effect of a mutation on the interaction” value was “with no effect”. In the case of K26A, the “effect of a mutation on the interaction” value is reported as “with no effect”. C28A was tested, and the “effect of a mutation on the interaction” value was “with no effect”. With D35A the “effect of a mutation on the interaction” value was “with no effect”. For E38A, the “effect of a mutation on the interaction” value was “with no effect”. For Y36A, the “effect of a mutation on the interaction” value was “with no effect”. P23A was tested, and the “effect of a mutation on the interaction” value was “with no effect”. P41A was tested, and the “effect of a mutation on the interaction” value was “with no effect”. With L29A the “effect of a mutation on the interaction” value was “with no effect”. With K22A the “effect of a mutation on the interaction” value was “with no effect”. R33A was tested, and the “effect of a mutation on the interaction” value was “with no effect”. In the case of P37A, the “effect of a mutation on the interaction” value is reported as “with no effect”. P32A was tested, and the “effect of a mutation on the interaction” value was “with no effect”. With T40A the “effect of a mutation on the interaction” value was “with no effect”.
